Measured values: patent publication US20160200782A1 (MOERAE MATRIX, published 2016)

T1: NEK2(h) (human, UniProt P51955 1-445, limits assumed)
T1 sequence (looked up): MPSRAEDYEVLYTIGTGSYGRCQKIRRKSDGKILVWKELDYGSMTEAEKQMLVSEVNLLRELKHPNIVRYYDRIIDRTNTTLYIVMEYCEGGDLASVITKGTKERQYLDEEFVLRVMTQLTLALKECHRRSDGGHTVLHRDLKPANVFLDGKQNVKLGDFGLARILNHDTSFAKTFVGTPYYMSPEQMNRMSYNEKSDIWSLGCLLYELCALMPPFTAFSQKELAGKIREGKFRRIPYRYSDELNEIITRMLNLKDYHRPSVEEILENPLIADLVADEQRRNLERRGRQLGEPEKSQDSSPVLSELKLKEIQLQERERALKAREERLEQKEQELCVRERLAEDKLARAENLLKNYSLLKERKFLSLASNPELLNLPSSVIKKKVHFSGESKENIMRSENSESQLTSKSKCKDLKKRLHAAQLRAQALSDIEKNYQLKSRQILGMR

T2: PRAK(h) (human, UniProt Q8IW41 1-473, limits assumed)
T2 sequence (looked up): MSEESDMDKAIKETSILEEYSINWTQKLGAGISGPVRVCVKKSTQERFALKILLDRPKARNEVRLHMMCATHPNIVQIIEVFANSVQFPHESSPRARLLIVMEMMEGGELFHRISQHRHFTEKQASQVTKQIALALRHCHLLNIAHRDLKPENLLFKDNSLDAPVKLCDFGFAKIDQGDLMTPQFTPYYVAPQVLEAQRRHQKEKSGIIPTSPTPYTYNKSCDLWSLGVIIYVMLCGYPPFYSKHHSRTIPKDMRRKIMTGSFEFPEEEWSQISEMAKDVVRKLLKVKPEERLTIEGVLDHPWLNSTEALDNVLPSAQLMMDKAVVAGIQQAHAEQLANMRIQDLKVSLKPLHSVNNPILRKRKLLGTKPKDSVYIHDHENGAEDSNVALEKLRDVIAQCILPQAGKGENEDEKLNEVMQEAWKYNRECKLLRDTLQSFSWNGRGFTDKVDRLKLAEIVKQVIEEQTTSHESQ

T3: EphA2(h) (human, UniProt P29317 559-976, limits assumed)
T3 sequence (looked up): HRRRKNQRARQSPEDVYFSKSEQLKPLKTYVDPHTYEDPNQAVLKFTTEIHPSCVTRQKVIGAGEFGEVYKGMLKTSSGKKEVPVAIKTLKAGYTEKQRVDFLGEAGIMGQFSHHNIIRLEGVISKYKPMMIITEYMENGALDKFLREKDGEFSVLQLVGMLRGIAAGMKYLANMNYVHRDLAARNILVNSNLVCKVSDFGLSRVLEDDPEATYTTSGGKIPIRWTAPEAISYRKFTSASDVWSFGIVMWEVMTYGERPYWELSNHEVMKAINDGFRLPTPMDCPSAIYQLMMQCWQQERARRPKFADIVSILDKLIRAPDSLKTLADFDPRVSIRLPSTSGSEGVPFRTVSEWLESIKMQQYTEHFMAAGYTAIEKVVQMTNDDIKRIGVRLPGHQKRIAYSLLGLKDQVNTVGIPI

T4: TSSK1(h) (human, UniProt Q9BXA7 1-367)
T4 sequence (looked up): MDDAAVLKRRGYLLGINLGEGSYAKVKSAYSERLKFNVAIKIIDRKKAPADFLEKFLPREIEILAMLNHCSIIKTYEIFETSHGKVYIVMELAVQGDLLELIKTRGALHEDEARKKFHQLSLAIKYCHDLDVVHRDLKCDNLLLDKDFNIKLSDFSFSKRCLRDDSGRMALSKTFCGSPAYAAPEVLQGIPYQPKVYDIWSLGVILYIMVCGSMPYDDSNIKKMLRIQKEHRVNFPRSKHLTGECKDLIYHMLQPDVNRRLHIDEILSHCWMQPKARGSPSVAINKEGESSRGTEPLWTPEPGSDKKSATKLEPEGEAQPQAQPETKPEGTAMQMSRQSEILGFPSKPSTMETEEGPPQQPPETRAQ


Legend:
Assay in all cases: cell-based or functional assay
ALK(h) = ALK(h) (human, UniProt Q9UM73 1058-1620, limits assumed)
Chain of ALK(h) (Q9UM73 1058-1620 limits assumed): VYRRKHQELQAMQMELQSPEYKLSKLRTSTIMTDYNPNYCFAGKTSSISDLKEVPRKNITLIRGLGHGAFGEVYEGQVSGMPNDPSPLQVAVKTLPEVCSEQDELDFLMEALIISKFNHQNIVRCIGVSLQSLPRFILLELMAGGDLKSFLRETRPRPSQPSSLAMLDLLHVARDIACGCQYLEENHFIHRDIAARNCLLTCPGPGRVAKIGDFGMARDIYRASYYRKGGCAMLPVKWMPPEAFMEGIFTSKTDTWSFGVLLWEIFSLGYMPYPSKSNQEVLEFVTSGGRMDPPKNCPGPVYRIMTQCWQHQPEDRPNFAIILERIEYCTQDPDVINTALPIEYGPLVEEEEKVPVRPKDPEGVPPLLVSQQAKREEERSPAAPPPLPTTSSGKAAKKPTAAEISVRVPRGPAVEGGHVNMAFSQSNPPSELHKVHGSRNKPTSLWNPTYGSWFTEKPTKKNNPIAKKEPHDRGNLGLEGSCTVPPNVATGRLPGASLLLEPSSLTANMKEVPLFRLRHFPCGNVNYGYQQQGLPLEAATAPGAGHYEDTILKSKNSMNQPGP

NEK2(h) = target: T1, NEK2(h)
CaMKIIγ(h) = CaMKIIγ(h) (human, UniProt Q13555 1-558, limits assumed)
Chain of CaMKIIγ(h) (Q13555 whole entry): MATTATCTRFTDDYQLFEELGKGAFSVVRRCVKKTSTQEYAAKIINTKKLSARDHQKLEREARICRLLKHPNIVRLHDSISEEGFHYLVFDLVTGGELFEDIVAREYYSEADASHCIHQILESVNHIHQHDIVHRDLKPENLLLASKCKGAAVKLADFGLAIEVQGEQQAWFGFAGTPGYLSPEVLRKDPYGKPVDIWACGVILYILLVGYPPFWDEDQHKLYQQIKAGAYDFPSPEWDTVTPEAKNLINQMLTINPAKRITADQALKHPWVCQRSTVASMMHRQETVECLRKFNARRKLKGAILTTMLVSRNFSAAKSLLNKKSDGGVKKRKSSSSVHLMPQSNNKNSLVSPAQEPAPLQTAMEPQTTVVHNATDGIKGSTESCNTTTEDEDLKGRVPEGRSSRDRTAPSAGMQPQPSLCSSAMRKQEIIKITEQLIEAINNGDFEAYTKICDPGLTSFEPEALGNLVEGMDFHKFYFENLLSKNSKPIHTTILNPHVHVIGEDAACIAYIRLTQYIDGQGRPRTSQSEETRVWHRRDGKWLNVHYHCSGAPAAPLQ

Lyn(h) = Lyn(h) (human, UniProt P07948 1-512, limits assumed)
Chain of Lyn(h) (P07948 whole entry): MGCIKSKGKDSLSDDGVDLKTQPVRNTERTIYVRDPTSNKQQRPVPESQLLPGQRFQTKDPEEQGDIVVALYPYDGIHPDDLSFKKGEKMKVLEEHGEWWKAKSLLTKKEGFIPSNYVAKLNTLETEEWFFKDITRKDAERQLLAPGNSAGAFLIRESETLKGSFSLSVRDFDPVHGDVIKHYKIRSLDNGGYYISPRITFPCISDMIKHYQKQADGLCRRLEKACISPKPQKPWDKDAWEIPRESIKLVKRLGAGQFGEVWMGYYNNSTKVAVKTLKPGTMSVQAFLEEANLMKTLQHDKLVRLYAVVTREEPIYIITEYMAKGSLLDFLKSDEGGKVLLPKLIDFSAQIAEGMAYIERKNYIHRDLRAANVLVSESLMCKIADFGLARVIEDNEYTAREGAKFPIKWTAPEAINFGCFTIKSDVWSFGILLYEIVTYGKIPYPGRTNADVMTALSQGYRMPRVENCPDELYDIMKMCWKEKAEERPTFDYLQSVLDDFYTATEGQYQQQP

IR(h), activated = IR(h), activated (human, UniProt P06213 1005-1310, limits assumed)
Pim-1(h) = Pim-1(h) (human, UniProt P11309 1-313)
PRAK(h) = target: T2, PRAK(h)
EphA2(h) = target: T3, EphA2(h)
AMPKa2(h) = AMPKa2(h) (human, UniProt P54646 1-552, limits assumed)
Chain of AMPKa2(h) (P54646 whole entry): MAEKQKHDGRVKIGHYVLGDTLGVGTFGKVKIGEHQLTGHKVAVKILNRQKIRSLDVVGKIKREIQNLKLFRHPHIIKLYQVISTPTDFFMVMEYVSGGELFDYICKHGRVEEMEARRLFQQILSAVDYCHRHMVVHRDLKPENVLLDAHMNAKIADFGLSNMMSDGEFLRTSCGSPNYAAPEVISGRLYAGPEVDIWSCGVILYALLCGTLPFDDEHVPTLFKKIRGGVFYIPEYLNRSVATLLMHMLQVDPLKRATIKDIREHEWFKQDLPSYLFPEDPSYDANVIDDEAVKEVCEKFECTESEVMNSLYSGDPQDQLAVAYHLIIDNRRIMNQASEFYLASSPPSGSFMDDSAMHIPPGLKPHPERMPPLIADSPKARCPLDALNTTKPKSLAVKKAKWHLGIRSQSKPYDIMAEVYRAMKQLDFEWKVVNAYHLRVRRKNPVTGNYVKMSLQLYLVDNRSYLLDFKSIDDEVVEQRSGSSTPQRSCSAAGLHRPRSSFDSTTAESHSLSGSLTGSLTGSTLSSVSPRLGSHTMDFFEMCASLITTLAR

CDK9/cyclin T1(h) = CDK9/cyclin T1(h) (human, UniProt P50750 1-372; O60563 1-726, limits assumed)
Chain of CDK9/cyclin T1(h) (P50750 whole entry, chain 1 of 2): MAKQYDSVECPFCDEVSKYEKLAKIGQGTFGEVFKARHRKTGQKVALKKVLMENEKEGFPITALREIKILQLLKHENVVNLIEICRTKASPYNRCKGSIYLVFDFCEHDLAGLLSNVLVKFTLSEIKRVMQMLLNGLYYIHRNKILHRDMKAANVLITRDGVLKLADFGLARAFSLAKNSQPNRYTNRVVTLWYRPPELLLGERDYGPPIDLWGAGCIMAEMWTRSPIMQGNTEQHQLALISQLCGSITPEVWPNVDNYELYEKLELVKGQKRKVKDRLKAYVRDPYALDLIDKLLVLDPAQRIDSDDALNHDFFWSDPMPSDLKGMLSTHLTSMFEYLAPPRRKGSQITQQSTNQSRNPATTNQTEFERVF
Chain of CDK9/cyclin T1(h) (O60563 whole entry, chain 2 of 2): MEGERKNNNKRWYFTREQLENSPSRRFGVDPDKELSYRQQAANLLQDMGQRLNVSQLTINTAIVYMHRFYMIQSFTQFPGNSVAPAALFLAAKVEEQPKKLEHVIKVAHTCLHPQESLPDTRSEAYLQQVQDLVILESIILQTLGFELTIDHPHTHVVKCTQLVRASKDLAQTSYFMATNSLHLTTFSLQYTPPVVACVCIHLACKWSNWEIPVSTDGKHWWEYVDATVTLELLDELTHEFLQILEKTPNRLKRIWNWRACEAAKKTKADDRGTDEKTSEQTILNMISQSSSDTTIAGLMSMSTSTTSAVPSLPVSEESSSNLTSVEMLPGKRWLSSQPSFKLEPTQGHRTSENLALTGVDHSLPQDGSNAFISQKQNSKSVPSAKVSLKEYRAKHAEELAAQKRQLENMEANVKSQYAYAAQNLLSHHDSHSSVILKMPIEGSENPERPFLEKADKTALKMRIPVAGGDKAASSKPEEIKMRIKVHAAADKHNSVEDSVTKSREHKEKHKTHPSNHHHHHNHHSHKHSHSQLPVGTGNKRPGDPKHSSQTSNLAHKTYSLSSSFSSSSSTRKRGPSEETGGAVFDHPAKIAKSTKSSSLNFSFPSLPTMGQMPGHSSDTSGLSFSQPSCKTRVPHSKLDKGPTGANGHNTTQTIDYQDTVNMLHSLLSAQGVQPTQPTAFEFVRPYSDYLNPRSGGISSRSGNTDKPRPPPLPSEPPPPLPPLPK

Src(1-530)(h) = Src(1-530)(h) (human, UniProt P12931 1-530)
Syk(h) = Syk(h) (human, UniProt P43405 1-635, limits assumed)
FGFR2(h) = FGFR2(h) (human, UniProt P21802 456-770, limits assumed)
Chain of FGFR2(h) (P21802 456-770 limits assumed): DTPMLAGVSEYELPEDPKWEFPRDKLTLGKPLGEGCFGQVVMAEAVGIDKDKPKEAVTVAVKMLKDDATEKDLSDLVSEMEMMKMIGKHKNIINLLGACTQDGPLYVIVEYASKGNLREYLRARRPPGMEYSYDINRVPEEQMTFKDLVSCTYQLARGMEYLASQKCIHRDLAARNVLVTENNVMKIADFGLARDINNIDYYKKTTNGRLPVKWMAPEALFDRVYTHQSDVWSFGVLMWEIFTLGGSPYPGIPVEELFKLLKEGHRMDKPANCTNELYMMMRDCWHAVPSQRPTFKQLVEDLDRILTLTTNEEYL

NEK6(h) = NEK6(h) (human, UniProt Q9HC98 1-313)
Chain of NEK6(h) (Q9HC98 whole entry): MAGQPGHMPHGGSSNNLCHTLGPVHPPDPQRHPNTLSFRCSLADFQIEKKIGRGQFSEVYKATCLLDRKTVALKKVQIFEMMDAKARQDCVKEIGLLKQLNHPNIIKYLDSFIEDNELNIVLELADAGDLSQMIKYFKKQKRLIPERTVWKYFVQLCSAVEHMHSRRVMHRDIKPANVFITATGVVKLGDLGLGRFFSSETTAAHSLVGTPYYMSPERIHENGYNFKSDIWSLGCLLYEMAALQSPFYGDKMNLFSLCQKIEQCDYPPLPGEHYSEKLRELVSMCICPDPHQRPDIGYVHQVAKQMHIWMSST

TSSK1(h) = target: T4, TSSK1(h)
MARK1(h) = MARK1(h) (human, UniProt Q9P0L2 1-795, limits assumed)
Chain of MARK1(h) (Q9P0L2 whole entry): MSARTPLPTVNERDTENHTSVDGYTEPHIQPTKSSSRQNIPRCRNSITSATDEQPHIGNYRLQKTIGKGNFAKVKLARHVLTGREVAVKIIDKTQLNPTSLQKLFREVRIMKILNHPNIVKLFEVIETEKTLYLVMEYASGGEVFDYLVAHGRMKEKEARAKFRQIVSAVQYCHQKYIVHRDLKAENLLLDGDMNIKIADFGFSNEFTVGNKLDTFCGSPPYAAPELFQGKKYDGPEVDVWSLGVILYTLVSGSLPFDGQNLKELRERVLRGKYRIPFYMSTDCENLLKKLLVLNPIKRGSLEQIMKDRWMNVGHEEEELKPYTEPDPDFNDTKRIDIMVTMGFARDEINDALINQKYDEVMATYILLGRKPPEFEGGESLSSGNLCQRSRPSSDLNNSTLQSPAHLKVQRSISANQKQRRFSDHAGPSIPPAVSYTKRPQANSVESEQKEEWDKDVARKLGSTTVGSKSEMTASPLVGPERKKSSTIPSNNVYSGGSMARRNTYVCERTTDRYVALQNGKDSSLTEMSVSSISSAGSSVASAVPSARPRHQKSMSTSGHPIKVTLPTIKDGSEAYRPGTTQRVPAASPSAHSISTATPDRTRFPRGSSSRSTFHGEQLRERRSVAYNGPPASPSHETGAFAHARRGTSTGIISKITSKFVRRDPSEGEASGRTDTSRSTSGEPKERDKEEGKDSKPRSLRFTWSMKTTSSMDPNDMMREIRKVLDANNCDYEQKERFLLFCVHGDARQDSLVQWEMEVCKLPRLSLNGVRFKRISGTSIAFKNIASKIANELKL

CHK2(R145W)(h) = CHK2(R145W)(h) (human, UniProt O96017 5-543, limits assumed)
STK33(h) = STK33(h) (human, UniProt Q9BYT3 1-514, limits assumed)

% activity (ALK(h)) | % activity (NEK2(h)) | % activity (CaMKIIγ(h)) | % activity (Lyn(h)) | % activity (IR(h), activated) | % activity (Pim-1(h)) | % activity (PRAK(h)) | % activity (EphA2(h)) | % activity (AMPKa2(h)) | % activity (CDK9/cyclin T1(h)) | % activity (Src(1-530)(h)) | % activity (Syk(h)) | % activity (FGFR2(h)) | % activity (NEK6(h)) | % activity (TSSK1(h)) | % activity (MARK1(h)) | % activity (CHK2(R145W)(h)) | % activity (STK33(h)) | Binder
19% | 78% | 5% | 69% | 79% | 8% | 128% | 31% | 54% | 91% | 23% | 24% | 14% | 82% | 79% | 132% | 33% | 45% | FAKLAARLYRKALARQLGVAA [MMI-0300]
16% | 61% | 3% | 3% | 59% | 7% | 118% | 17% | 58% | 235% | 19% | 9% | 18% | 85% | 79% | 120% | 31% | 52% | KAFAKLAARLYRKALARQLGVAA [MMI-0400]
